These results are taken from patent US10941182 (Amgen, dated 2021).

Sequences and labels used below:
T1: human APJ receptor (human, UniProt P35414 1-380)
T1 sequence (looked up): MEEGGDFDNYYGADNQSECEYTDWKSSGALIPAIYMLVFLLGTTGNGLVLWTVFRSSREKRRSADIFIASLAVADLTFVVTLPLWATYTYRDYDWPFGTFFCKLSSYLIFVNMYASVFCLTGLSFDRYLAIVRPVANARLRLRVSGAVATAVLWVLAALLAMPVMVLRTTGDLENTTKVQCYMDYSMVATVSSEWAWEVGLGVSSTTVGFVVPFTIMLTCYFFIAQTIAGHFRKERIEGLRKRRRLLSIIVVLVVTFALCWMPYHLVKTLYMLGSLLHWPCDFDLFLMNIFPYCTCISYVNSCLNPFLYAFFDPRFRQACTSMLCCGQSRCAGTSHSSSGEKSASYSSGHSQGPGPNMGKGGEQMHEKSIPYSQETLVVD

T2: rat APJ receptor (rat, UniProt Q9JHG3 1-377)
T2 sequence (looked up): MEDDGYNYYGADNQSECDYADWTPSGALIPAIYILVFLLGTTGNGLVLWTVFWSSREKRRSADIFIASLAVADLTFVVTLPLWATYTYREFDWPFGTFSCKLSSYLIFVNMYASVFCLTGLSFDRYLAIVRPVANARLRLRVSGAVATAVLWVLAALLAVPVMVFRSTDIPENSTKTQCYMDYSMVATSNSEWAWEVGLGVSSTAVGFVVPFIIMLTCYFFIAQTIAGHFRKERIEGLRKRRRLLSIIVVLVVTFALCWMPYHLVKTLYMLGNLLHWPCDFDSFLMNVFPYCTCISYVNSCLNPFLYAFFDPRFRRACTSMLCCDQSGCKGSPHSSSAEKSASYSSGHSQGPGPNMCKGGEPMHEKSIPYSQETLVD

B1: Apelin polypeptide SEQ ID NO: 358 (peptide)
peptide: Tridecanoyl-[γGlu][AEEA][AEEA]Q[hArg]P[hArg]LSHKG[Oic][Nle]P[Phe(4-Cl)]-OH
SMILES: CCCCCCCCCCCCC(=O)N[C@@H](CCC(=O)NCCOCCOCC(=O)NCCOCCOCC(=O)N[C@@H](CCC(N)=O)C(=O)N[C@@H](CCCCNC(=N)N)C(=O)N1CCC[C@H]1C(=O)N[C@@H](CCCCNC(=N)N)C(=O)N[C@@H](CC(C)C)C(=O)N[C@@H](CO)C(=O)N[C@@H](Cc1c[nH]cn1)C(=O)N[C@@H](CCCCN)C(=O)NCC(=O)N1[C@H](C(=O)N[C@@H](CCCC)C(=O)N2CCC[C@H]2C(=O)N[C@@H](Cc2ccc(Cl)cc2)C(=O)O)C[C@@H]2CCCC[C@@H]21)C(=O)O
B2: Apelin polypeptide SEQ ID NO: 488 (peptide)
peptide: Tridecanoyl-[γGlu][AEEA][AEEA][dQ][hArg]P[hArg][Cha]SHKG[Oic][Nle]P[Phe(4-Cl)]-OH
SMILES: CCCCCCCCCCCCC(=O)N[C@@H](CCC(=O)NCCOCCOCC(=O)NCCOCCOCC(=O)N[C@H](CCC(N)=O)C(=O)N[C@@H](CCCCNC(=N)N)C(=O)N1CCC[C@H]1C(=O)N[C@@H](CCCCNC(=N)N)C(=O)N[C@@H](CC1CCCCC1)C(=O)N[C@@H](CO)C(=O)N[C@@H](Cc1c[nH]cn1)C(=O)N[C@@H](CCCCN)C(=O)NCC(=O)N1[C@H](C(=O)N[C@@H](CCCC)C(=O)N2CCC[C@H]2C(=O)N[C@@H](Cc2ccc(Cl)cc2)C(=O)O)C[C@@H]2CCCC[C@@H]21)C(=O)O
B3: Apelin polypeptide SEQ ID NO: 301 (peptide)
peptide: Tridecanoyl-[γGlu][AEEA][AEEA][dQ][hArg][β3hP][NMeR][Cha]SHKG[Oic][Nle]P[dPhe(4-Cl)]-OH
SMILES: CCCCCCCCCCCCC(=O)N[C@@H](CCC(=O)NCCOCCOCC(=O)NCCOCCOCC(=O)N[C@H](CCC(N)=O)C(=O)N[C@@H](CCCCNC(=N)N)C(=O)N1CCC[C@H]1CC(=O)N(C)[C@@H](CCCNC(=N)N)C(=O)N[C@@H](CC1CCCCC1)C(=O)N[C@@H](CO)C(=O)N[C@@H](Cc1c[nH]cn1)C(=O)N[C@@H](CCCCN)C(=O)NCC(=O)N1[C@H](C(=O)N[C@@H](CCCC)C(=O)N2CCC[C@H]2C(=O)N[C@H](Cc2ccc(Cl)cc2)C(=O)O)C[C@@H]2CCCC[C@@H]21)C(=O)O
B4: Apelin polypeptide SEQ ID NO: 442 (peptide)
peptide: Tridecanoyl-[γGlu][AEEA][AEEA][Tle]RP[NMeR][Cha]SHKG[Oic][Nle]P[Phe(4-Cl)]-OH
SMILES: CCCCCCCCCCCCC(=O)N[C@@H](CCC(=O)NCCOCCOCC(=O)NCCOCCOCC(=O)N[C@H](C(=O)N[C@@H](CCCNC(=N)N)C(=O)N1CCC[C@H]1C(=O)N(C)[C@@H](CCCNC(=N)N)C(=O)N[C@@H](CC1CCCCC1)C(=O)N[C@@H](CO)C(=O)N[C@@H](Cc1c[nH]cn1)C(=O)N[C@@H](CCCCN)C(=O)NCC(=O)N1[C@H](C(=O)N[C@@H](CCCC)C(=O)N2CCC[C@H]2C(=O)N[C@@H](Cc2ccc(Cl)cc2)C(=O)O)C[C@@H]2CCCC[C@@H]21)C(C)(C)C)C(=O)O
B5: Apelin polypeptide SEQ ID NO: 486 (peptide)
peptide: Tridecanoyl-[γGlu][AEEA][AEEA][dQ][hArg][Oic][dR][Cha]SHKG[Oic][Nle]P[Phe(4-Cl)]-OH
SMILES: CCCCCCCCCCCCC(=O)N[C@@H](CCC(=O)NCCOCCOCC(=O)NCCOCCOCC(=O)N[C@H](CCC(N)=O)C(=O)N[C@@H](CCCCNC(=N)N)C(=O)N1[C@H](C(=O)N[C@H](CCCNC(=N)N)C(=O)N[C@@H](CC2CCCCC2)C(=O)N[C@@H](CO)C(=O)N[C@@H](Cc2c[nH]cn2)C(=O)N[C@@H](CCCCN)C(=O)NCC(=O)N2[C@H](C(=O)N[C@@H](CCCC)C(=O)N3CCC[C@H]3C(=O)N[C@@H](Cc3ccc(Cl)cc3)C(=O)O)C[C@@H]3CCCC[C@@H]32)C[C@@H]2CCCC[C@@H]21)C(=O)O
B6: Apelin polypeptide SEQ ID NO: 455 (peptide)
peptide: Tridecanoyl-[γGlu][AEEA][AEEA][dQ][hArg][Deg][dR][Cha]SHKG[Oic][Nle]P[Phe(4-Cl)]-OH
SMILES: CCCCCCCCCCCCC(=O)N[C@@H](CCC(=O)NCCOCCOCC(=O)NCCOCCOCC(=O)N[C@H](CCC(N)=O)C(=O)N[C@@H](CCCCNC(=N)N)C(=O)NC(CC)(CC)C(=O)N[C@H](CCCNC(=N)N)C(=O)N[C@@H](CC1CCCCC1)C(=O)N[C@@H](CO)C(=O)N[C@@H](Cc1c[nH]cn1)C(=O)N[C@@H](CCCCN)C(=O)NCC(=O)N1[C@H](C(=O)N[C@@H](CCCC)C(=O)N2CCC[C@H]2C(=O)N[C@@H](Cc2ccc(Cl)cc2)C(=O)O)C[C@@H]2CCCC[C@@H]21)C(=O)O
B7: Apelin polypeptide SEQ ID NO: 292 (peptide)
peptide: Tridecanoyl-[γGlu][AEEA][AEEA][dL][hArg]P[NMeR][Cha]SHKG[Oic][Nle]P[dPhe(4-Cl)]-OH
SMILES: CCCCCCCCCCCCC(=O)N[C@@H](CCC(=O)NCCOCCOCC(=O)NCCOCCOCC(=O)N[C@H](CC(C)C)C(=O)N[C@@H](CCCCNC(=N)N)C(=O)N1CCC[C@H]1C(=O)N(C)[C@@H](CCCNC(=N)N)C(=O)N[C@@H](CC1CCCCC1)C(=O)N[C@@H](CO)C(=O)N[C@@H](Cc1c[nH]cn1)C(=O)N[C@@H](CCCCN)C(=O)NCC(=O)N1[C@H](C(=O)N[C@@H](CCCC)C(=O)N2CCC[C@H]2C(=O)N[C@H](Cc2ccc(Cl)cc2)C(=O)O)C[C@@H]2CCCC[C@@H]21)C(=O)O
B8: Apelin polypeptide SEQ ID NO: 550 (peptide)
peptide: Tridecanoyl-[γGlu][AEEA][AEEA]Q[β3hP][NMeR][Cha]SHKG[Oic][Nle][Aib][Phe(4-Cl)]-OH
SMILES: CCCCCCCCCCCCC(=O)N[C@@H](CCC(=O)NCCOCCOCC(=O)NCCOCCOCC(=O)N[C@@H](CCC(N)=O)C(=O)N1CCC[C@H]1CC(=O)N(C)[C@@H](CCCNC(=N)N)C(=O)N[C@@H](CC1CCCCC1)C(=O)N[C@@H](CO)C(=O)N[C@@H](Cc1c[nH]cn1)C(=O)N[C@@H](CCCCN)C(=O)NCC(=O)N1[C@H](C(=O)N[C@@H](CCCC)C(=O)NC(C)(C)C(=O)N[C@@H](Cc2ccc(Cl)cc2)C(=O)O)C[C@@H]2CCCC[C@@H]21)C(=O)O
B9: Apelin polypeptide SEQ ID NO: 489 (peptide)
peptide: Tridecanoyl-[γGlu][AEEA][AEEA]Q[hArg]P[hArg][Cha]SHKG[Oic][Nle]P[Phe(4-Cl)]-OH
SMILES: CCCCCCCCCCCCC(=O)N[C@@H](CCC(=O)NCCOCCOCC(=O)NCCOCCOCC(=O)N[C@@H](CCC(N)=O)C(=O)N[C@@H](CCCCNC(=N)N)C(=O)N1CCC[C@H]1C(=O)N[C@@H](CCCCNC(=N)N)C(=O)N[C@@H](CC1CCCCC1)C(=O)N[C@@H](CO)C(=O)N[C@@H](Cc1c[nH]cn1)C(=O)N[C@@H](CCCCN)C(=O)NCC(=O)N1[C@H](C(=O)N[C@@H](CCCC)C(=O)N2CCC[C@H]2C(=O)N[C@@H](Cc2ccc(Cl)cc2)C(=O)O)C[C@@H]2CCCC[C@@H]21)C(=O)O
B10: Apelin polypeptide SEQ ID NO: 297 (peptide)
peptide: Tridecanoyl-[γGlu][AEEA][AEEA][Orn]F[hArg][hArg]Q[NMeR]P[NMeR][Cha]SHKG[Oic][Nle]P[Phe(4-Cl)]-OH
SMILES: CCCCCCCCCCCCC(=O)N[C@@H](CCC(=O)NCCOCCOCC(=O)NCCOCCOCC(=O)N[C@@H](CCCN)C(=O)N[C@@H](Cc1ccccc1)C(=O)N[C@@H](CCCCNC(=N)N)C(=O)N[C@@H](CCCCNC(=N)N)C(=O)N[C@@H](CCC(N)=O)C(=O)N(C)[C@@H](CCCNC(=N)N)C(=O)N1CCC[C@H]1C(=O)N(C)[C@@H](CCCNC(=N)N)C(=O)N[C@@H](CC1CCCCC1)C(=O)N[C@@H](CO)C(=O)N[C@@H](Cc1c[nH]cn1)C(=O)N[C@@H](CCCCN)C(=O)NCC(=O)N1[C@H](C(=O)N[C@@H](CCCC)C(=O)N2CCC[C@H]2C(=O)N[C@@H](Cc2ccc(Cl)cc2)C(=O)O)C[C@@H]2CCCC[C@@H]21)C(=O)O

Starred links: 1 amine or outer side, 2 acyl side, 3 side chain; linkers in the order of their positions; H or OH if unused. Non-standard residues stand in square brackets, D forms with d. *: point of attachment. Oic = O=C(O)[C@@H]1C[C@@H]2CCCC[C@@H]2N1; Phe(4-Cl) = N[C@@H](Cc1ccc(Cl)cc1)C(=O)O; dPhe(4-Cl) = N[C@H](Cc1ccc(Cl)cc1)C(=O)O; γGlu = O=C(O)[C@H](CCC(=O)[*:2])N[*:1]; NMeR = CN[C@@H](CCCNC(=N)N)C(=O)O; Tridecanoyl = CCCCCCCCCCCCC(=O)*; hArg = N=C(N)NCCCC[C@H](N)C(=O)O; Cha = N[C@@H](CC1CCCCC1)C(=O)O; Tle = CC(C)(C)[C@H](N)C(=O)O; β3hP = O=C(O)C[C@@H]1CCCN1; Nle = CCCC[C@H](N)C(=O)O; Orn = NCCC[C@H](N)C(=O)O; Deg = CCC(N)(CC)C(=O)O; AEEA = NCCOCCOCC(=O)O; Aib = CC(C)(N)C(=O)O; BLeu = β-leucine

The first assay concerns the target T1, human APJ receptor. Briefly: cell-based or functional assay.
Regarding B1, the “EC50 Human APJ Receptor (GTPγS assay)” value amounted to 0.285 nM.
Same read-out and setting: for B2 the value was 0.198 nM.
Still for that read-out and setting: for B3 the value was 36 nM; for B4, 2 nM; for B5, 1.79 nM.
The same measure, in the same setting: for Tridecanoyl-[γGlu][AEEA][AEEA][Orn]F[hArg][hArg][BLeu][hArg]P[hArg][Cha]SHKG[Oic][Nle]P[Phe(4-Cl)]-OH [Apelin polypeptide SEQ ID NO: 307] the value was 0.305 nM.
As for B6, the “EC50 Human APJ Receptor (GTPγS assay)” value is 2.48 nM.
Turning to B7, the “EC50 Human APJ Receptor (GTPγS assay)” value amounted to 5.78 nM.
With B8, the “EC50 Human APJ Receptor (GTPγS assay)” value came to 94.8 nM.
Same read-out and setting: for B9 the value was 0.601 nM; for B10, 0.698 nM.

Another assay deals with T2, rat APJ receptor. Briefly: cell-based or functional assay.
On to B1, for which the “EC50 Rat APJ Receptor (GTPγS assay)” value was 0.314 nM.
Still for that read-out and setting: for B2 the value was 1.72 nM; for B3, 29 nM.
With B4, the “EC50 Rat APJ Receptor (GTPγS assay)” value is 2.16 nM.
Same read-out and setting: for B5 the value was 4.04 nM; for Tridecanoyl-[γGlu][AEEA][AEEA][Orn]F[hArg][hArg][BLeu][hArg]P[hArg][Cha]SHKG[Oic][Nle]P[Phe(4-Cl)]-OH [Apelin polypeptide SEQ ID NO: 307], 0.31 nM.
The same measure, in the same setting: for B6 the value was 10.3 nM; for B7, 6.68 nM.
The same measure, in the same setting: for B8 the value was 135 nM; for B9, 3.59 nM.
As to B10, the “EC50 Rat APJ Receptor (GTPγS assay)” value is 1.02 nM.
